The series concerns the target T1, TabHLH1 (Taraxacum antungense Kitag, UniProt A0A482LNV1 1-521).
T1 sequence: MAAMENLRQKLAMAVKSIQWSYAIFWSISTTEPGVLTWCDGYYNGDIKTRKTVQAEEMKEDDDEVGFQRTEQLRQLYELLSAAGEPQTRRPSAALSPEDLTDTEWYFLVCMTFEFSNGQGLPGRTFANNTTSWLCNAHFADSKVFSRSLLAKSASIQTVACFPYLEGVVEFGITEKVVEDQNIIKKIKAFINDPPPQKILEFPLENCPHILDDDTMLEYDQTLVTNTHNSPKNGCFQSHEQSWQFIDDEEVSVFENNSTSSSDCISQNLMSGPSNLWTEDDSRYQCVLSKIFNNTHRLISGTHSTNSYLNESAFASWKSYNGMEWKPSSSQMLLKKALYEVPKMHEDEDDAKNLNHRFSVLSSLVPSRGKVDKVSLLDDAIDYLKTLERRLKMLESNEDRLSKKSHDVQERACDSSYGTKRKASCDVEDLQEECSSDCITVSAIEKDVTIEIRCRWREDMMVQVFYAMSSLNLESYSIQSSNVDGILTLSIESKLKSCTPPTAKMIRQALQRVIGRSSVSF
As to the kind of experiment: EMSA; unlabeled identical cold probe used as control; EMSA binding buffer (Beyotime, 10x stock), 25 °C, 30 min; salt and pH not stated. To be noted: protein: recombinant; tags: GST (pGEX4T-1); chain copies: 2; label: 3' biotin on both strands; blunt. (In general: Mobility shift assays separate free from complexed probe on a gel.)

B1: Ta4CL promoter E-box probe (dsDNA)
DNA 1: TGGCCAAAATCCCATGTGATTTCGGCCCAC
DNA 2: GTGGGCCGAAATCACATGGGATTTTGGCCA
For the molecule B1, the binding result was “binds”.

B2: TaHQT2 promoter E-box probe (dsDNA)
DNA 1: CGAACGGAGGAACATGTGTGCTCTGAAAAT
DNA 2: ATTTTCAGAGCACACATGTTCCTCCGTTCG
As for B2, the binding result is on record as “binds”.

These data come from paper PMC8408231, “The basic helix-loop-helix transcription factor TabHLH1 increases chlorogenic acid and luteolin biosynthesis in Taraxacum antungense Kitag”.
